Measurements: patent US20150241442A1

Target: Leukocyte Function Antigen-1 (LFA-1), on cells (Jurkat T cells, human T cells, PBMC) (human) (UniProt P20701)
Test: cell-based or functional assay

recombinant human ICAM-1-FC, sequence (P05362 28-480 limits assumed): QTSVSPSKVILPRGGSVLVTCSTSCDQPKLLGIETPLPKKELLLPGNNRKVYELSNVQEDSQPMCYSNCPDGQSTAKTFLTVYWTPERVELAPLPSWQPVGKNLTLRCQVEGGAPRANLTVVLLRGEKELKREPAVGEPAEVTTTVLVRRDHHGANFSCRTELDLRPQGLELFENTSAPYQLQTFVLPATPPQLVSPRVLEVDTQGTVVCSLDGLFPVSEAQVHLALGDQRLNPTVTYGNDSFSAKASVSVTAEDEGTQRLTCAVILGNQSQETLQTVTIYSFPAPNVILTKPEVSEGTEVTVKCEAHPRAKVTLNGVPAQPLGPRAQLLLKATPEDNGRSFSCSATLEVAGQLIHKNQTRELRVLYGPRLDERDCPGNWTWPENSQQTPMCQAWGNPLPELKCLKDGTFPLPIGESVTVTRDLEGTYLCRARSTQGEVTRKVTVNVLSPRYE
Leukocyte Function Antigen-1 (LFA-1), on cells (Jurkat T cells, human T cells, PBMC) (human), sequence (P20701 26-1170, chain 1 of 2): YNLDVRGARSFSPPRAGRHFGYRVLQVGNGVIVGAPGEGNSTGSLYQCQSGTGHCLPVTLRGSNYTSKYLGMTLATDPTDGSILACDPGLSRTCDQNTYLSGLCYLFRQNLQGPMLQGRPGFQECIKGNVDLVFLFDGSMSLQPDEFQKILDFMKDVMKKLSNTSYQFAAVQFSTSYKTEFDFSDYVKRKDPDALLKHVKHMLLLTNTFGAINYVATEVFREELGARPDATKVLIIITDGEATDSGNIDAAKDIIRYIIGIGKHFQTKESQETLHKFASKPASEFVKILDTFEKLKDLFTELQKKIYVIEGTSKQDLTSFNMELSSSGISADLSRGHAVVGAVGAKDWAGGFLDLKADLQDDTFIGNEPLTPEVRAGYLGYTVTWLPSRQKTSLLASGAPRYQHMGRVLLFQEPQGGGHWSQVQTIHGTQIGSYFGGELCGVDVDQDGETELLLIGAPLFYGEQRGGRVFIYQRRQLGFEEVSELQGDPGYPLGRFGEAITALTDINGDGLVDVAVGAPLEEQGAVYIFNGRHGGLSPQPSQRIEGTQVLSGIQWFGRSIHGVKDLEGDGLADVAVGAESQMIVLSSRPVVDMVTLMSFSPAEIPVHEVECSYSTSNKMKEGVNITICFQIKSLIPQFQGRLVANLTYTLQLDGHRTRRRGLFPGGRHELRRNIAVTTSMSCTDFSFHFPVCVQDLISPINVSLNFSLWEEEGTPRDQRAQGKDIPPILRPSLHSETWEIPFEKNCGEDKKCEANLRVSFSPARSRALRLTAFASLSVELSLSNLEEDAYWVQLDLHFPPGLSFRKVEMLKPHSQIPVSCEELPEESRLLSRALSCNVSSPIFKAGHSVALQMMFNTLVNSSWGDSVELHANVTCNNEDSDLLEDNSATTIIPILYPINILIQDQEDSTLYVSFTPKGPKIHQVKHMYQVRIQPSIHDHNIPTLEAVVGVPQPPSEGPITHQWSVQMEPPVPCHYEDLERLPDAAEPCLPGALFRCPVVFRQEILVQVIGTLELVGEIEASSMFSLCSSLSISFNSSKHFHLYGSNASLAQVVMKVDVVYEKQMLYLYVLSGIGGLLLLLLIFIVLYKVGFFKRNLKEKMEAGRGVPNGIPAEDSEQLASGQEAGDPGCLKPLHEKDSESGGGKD
Leukocyte Function Antigen-1 (LFA-1), on cells (Jurkat T cells, human T cells, PBMC) (human), sequence (P05107 23-769, chain 2 of 2, further chain): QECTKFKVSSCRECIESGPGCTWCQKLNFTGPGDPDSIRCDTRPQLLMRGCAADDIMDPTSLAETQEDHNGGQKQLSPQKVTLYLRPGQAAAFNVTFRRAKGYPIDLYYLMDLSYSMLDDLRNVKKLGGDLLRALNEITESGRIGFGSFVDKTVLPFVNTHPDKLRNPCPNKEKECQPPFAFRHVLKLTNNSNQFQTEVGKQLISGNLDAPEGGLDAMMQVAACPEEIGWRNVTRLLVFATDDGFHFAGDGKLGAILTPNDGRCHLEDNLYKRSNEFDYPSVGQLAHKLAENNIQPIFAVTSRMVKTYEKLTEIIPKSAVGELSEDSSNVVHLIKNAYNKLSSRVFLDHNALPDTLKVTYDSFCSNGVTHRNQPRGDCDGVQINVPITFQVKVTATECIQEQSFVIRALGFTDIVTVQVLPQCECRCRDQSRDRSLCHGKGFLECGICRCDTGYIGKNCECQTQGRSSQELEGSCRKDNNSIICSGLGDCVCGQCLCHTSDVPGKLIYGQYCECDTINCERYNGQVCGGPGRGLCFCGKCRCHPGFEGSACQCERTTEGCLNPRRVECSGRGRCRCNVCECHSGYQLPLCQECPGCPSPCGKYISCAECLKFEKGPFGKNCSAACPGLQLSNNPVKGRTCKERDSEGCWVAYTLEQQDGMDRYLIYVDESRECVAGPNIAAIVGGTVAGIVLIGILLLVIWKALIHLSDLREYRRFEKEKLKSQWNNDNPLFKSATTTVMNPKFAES

frequency of the perforin negative population, CD56+CD8med cells: 13.7%
granzyme-A negative population, CD56+CD8high cells: 4.12%
Substance: recombinant human ICAM-1-FC (from UniProt P05362 28-480) (Fc fusion)
